Source: paper PMC6327041, “Histone H3 binding to the PHD1 domain of histone demethylase KDM5A enables active site remodeling” (Nature Communications, 2019)

Target: KDM5A PHD1 domain, S287-K347 (UniProt P29375)
Experiment: competition fluorescence polarization
Conditions: reference: unmodified H3 10mer peptide

KDM5A PHD1 domain, S287-K347, sequence (P29375 whole entry, looked up, the tested form may be a part): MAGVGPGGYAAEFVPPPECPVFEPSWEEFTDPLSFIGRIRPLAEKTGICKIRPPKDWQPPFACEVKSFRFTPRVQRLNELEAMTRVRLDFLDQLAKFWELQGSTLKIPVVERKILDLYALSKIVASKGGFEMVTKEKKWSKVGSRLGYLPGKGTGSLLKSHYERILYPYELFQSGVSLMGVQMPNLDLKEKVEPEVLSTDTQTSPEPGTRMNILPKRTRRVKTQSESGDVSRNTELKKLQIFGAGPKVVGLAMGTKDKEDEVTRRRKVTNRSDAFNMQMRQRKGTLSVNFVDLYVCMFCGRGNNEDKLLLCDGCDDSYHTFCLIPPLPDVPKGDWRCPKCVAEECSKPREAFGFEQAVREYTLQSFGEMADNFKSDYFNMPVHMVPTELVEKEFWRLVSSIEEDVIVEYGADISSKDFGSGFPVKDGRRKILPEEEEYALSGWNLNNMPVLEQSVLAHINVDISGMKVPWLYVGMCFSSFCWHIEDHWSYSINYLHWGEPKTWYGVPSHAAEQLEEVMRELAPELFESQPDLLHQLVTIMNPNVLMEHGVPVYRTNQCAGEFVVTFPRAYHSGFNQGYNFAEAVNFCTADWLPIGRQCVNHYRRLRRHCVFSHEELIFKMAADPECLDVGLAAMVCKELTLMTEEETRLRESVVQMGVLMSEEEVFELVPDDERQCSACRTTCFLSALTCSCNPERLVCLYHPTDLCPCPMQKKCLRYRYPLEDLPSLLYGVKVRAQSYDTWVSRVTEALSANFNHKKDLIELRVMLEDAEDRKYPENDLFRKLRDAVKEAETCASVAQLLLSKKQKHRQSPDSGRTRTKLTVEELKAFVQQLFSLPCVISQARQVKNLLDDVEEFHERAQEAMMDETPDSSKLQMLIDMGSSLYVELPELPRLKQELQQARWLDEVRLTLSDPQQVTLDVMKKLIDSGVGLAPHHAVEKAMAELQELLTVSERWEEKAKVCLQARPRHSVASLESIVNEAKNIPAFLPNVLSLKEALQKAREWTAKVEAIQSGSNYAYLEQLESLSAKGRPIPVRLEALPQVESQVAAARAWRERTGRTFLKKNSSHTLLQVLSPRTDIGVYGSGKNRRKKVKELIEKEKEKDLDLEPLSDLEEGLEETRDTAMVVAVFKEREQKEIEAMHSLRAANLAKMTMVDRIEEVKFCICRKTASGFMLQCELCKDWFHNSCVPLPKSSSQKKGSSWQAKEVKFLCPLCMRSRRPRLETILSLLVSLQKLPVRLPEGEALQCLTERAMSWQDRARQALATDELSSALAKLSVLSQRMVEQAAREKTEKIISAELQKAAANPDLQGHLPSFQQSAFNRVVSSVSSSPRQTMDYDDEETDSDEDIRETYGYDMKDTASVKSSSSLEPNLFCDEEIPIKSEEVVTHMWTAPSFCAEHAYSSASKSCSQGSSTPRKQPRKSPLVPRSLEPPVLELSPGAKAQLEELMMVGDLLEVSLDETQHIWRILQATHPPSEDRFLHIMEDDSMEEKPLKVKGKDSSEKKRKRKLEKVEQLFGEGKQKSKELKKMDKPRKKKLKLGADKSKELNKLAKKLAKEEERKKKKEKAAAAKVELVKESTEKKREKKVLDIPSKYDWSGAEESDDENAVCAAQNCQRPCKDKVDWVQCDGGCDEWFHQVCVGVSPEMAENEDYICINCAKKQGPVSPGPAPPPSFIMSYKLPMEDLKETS

| binding against the reference (sites T3) | binding against the reference (sites T6) | Substance |
| --- | --- | --- |
| weaker | – | histone H3 (N-terminal tail peptide) N-terminal tail 10mer, 1-10 (from UniProt P68431) H3T3ph 10mer peptide |
| – | weaker | histone H3 (N-terminal tail peptide) N-terminal tail 10mer, 1-10 (from UniProt P68431) H3T6ph 10mer peptide |
